Assay in all cases: SPR, KD relative to WT C2;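 note: biacore SPR at 37 °C, anti-C2 mAbs captured on anti-human IgG chips with alanine or serine point mutants of C2 as analyte, KD from 1:1 fit compared with wild-type C2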
The target in assay [1] is T1, human C2 F689A (human, UniProt P06681 21-752).
T1 sequence: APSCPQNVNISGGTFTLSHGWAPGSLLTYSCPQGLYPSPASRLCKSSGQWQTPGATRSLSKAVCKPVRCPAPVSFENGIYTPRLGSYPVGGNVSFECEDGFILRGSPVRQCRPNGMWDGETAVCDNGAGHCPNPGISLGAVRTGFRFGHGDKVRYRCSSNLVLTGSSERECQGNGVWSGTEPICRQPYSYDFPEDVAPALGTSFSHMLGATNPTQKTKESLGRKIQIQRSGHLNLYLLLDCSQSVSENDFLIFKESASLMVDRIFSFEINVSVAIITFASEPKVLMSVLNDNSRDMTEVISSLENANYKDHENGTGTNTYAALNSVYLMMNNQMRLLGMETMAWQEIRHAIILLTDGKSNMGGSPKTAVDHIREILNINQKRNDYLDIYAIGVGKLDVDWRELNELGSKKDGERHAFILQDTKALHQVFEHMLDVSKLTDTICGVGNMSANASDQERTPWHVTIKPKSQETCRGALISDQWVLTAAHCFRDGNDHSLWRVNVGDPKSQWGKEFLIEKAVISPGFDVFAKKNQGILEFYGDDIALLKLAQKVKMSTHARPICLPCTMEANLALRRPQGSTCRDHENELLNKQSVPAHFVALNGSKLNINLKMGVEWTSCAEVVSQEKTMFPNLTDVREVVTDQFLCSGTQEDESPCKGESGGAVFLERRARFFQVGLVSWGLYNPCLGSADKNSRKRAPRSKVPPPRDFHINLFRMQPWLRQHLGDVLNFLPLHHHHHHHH
Method: (§1) Surface plasmon resonance (SPR, Biacore) was used for all binding affinity analyses. In brief, goat anti-human IgG was directly immobilised onto the carboxymethyl dextran surface of CM5 sensorchips to approximately 12,000 RU using standard NHS/EDC chemistry at pH 5. The immobilised antibody surface was pre-conditioned with ten injections of polyclonal human IgG (Privigen 60 s) prepared at 1 μg/mL. Ligands (anti-C2 mAbs) were captured at the beginning of each cycle as described below. An adjacent spot or flow cell in which only Polyclonal IgG was capture was used as a reference surface. The goat anti-human IgG Fc antibody surface was regenerate in 100 mM H3PO4, injected for 45 seconds at the end of each cycle. Experiments were performed at 37° C. and the flow rate of each experiment was kept constant at 30 μL/min.
(§2) Sensogram data was double-referenced against a reference anti-IgG surface (i.e. minus anti-C2 mAb) and blank buffer injections obtained within each experiment. The binding data was fit to 1:1 (kinetic or steady-state) model using local Rmax and null refraction index (RI=0) when appropriate. Buffers and solutions were filtered (0.22 μm) prior to use.

The target of assay [2] is T2, human C2 S278A (human, UniProt P06681 21-752).
T2 sequence: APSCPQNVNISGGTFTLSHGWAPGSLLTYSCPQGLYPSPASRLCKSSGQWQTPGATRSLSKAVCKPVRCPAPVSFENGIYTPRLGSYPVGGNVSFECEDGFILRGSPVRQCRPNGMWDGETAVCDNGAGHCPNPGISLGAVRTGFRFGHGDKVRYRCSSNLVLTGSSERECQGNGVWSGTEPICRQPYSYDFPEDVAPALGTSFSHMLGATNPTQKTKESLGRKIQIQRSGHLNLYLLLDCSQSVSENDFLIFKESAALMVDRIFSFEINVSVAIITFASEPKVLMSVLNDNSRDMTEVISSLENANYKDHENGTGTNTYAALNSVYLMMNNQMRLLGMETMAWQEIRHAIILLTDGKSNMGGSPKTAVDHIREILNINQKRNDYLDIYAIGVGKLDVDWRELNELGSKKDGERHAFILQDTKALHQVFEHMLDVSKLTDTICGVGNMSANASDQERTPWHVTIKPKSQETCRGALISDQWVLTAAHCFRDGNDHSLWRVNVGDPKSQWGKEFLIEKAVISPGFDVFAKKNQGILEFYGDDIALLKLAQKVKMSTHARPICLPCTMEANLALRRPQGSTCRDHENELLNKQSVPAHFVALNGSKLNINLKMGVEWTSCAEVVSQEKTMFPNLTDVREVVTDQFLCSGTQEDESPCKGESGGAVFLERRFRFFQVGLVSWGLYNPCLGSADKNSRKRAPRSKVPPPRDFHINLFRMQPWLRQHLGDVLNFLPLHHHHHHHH
Method: as §1, §2

The target of assay [3] is T3, human C2 D269A (human, UniProt P06681 21-752).
T3 sequence: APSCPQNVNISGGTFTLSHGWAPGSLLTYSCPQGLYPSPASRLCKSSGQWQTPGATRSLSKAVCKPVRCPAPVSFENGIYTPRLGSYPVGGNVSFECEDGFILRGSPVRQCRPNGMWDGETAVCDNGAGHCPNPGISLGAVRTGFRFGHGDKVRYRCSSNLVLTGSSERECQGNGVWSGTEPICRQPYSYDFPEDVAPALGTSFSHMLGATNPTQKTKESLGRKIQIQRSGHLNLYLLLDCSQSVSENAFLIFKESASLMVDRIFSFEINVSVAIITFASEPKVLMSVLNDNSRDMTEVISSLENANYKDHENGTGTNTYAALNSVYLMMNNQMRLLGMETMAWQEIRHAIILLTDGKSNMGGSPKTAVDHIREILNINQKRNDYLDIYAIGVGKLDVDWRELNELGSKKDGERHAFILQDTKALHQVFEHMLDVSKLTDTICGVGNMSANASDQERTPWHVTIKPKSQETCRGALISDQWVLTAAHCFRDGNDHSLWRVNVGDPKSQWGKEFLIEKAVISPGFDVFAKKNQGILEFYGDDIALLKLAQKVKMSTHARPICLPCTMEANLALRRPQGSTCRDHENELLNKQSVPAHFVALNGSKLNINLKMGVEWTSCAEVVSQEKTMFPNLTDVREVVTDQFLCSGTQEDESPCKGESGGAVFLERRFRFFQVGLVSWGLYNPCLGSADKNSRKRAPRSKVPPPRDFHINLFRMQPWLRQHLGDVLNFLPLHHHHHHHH
Method: as §1, §2

Assay [4] addresses T4, human C2 S473A (human, UniProt P06681 21-752).
T4 sequence: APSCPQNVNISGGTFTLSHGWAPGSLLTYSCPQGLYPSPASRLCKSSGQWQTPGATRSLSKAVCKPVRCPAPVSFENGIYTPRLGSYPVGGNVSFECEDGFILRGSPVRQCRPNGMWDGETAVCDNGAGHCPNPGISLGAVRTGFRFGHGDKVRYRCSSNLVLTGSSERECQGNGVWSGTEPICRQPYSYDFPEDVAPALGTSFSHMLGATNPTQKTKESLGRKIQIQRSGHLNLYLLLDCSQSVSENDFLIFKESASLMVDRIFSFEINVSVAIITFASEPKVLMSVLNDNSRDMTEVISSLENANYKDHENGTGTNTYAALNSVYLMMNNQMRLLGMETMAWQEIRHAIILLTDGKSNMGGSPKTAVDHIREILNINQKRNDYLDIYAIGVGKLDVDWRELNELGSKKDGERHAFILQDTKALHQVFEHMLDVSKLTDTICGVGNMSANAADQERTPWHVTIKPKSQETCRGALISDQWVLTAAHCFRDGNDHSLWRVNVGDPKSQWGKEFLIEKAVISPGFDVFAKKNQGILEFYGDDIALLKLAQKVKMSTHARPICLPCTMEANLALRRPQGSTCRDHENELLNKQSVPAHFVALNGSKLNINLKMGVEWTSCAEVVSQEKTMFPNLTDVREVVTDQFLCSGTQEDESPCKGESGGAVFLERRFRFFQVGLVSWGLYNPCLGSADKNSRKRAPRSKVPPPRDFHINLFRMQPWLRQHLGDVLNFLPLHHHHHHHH
Method: as §1, §2

B1: RF16-242 (antibody, human IgG4 S228P, lambda, V domains shown)
VH: EVQLLQSGAEVKKPGESLKISCKGSGYSFTSYWIGWVRQMPGKGLEWMGIIYPGDSDTRYSPSFQGQVTISADKSISTAYLQWSSLKASDTAMYYCARRGHYGDYFDYWGQGTLVTVSS
VL: SYELTQPPSVSVSPGQTARITCSGDALPKKYAYWYHQKSGQAPVLVIYEDRRRPSEIPERFSGSSSGTMATLTITGAQVEDEGVYFCYSRDRAGNQRVFGGGTQLTVLG
notes: pH-dependent anti-C2 antibody from a phage display library
As for B1, the Fold diff amounted to 1 fold in assay [1], 1 fold in assay [2], 2 fold in assay [3] and 2 fold in assay [4].

The values above are taken from US20220332804A1 (CSL INNOVATION, published 2022).
